Data published in patent publication US20200199216A1 (KINDRED BIOSCIENCES, published 2020).

Key:
[1] = target: T1, canine IL17A-huFc (canine); assay: ELISA; canine IL17A-huFc captured on anti-human Fc, detection goat anti-mouse Fc-HRP
T1 construct: also called canine IL17A-hFc; not shown: human Fc on the C-terminal
T1 chain: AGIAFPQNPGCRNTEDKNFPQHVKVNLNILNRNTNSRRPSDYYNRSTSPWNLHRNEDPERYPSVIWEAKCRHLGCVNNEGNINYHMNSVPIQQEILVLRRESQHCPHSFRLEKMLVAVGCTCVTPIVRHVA
Method: Binding affinity of monoclonal antibodies A, B, C, D, and E to canine IL17A-huFc polypeptide was analyzed by ELISA. In the binding ELISA performed, the wells were coated with anti-human Fc antibody. Canine IL17A-huFc protein was then added to the wells. Antibody purified from each of the five hybridoma clones was added to the wells at various concentrations (19.35 nM, 6.45 nM, 2.15 nM, 0.75 nM, 0.24 nM, 0.08 nM, 0.03 nM, and 0 nM). Goat anti-mouse Fc-HRP was added and color was developed. […] Table 3 below provides the EC50 values associated with the binding ELISA for each of the clones.

[2] = target: T2, canine IL17A-polyHis (canine, biotinylated (EZ-Link NHS-LC-biotin) in the biosensor assays); assay: BLI (Octet); biotinylated canine IL17A-polyHis on streptavidin sensors, antibody 0-220 nM, 1:1 model
T2 construct: also called biotinylated canine IL17A-polyHis; not shown: poly-His tag on the C-terminal
T2 chain: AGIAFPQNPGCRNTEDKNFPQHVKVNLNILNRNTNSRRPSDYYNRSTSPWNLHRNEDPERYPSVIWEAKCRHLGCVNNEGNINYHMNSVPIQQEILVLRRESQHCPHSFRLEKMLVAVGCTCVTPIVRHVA
Method: The binding analysis was performed using a Biosensor Octet as follows. Briefly, canine IL17A-polyHis, which was expressed and purified from CHO-S cells, was biotinylated using EZ-Link NHS-LC-biotin (Catalog No. 21336, Thermo Scientific). Free, unreacted biotin was removed from biotinylated IL17A by dialysis. Biotinylated canine IL17A was captured on streptavidin sensor tips (Catalog No. 18-509, ForteBio). The association of different concentrations (0 nM, 18.33 nM, 45.87 nM, 110 nM, 220 nM) of hybridoma Clone C or caninized Clone C antibody to canine IL17A was monitored for 90 seconds. Dissociation was monitored for 600 seconds. A buffer only blank curve was subtracted to correct for any drift. The data were fit to a 1:1 binding model using ForteBio™ data analysis software to determine the kₒₙ, koff, and the Kd. The buffer for dilutions and all binding steps was: 20 mM phosphate, 150 mM NaCl, pH 7.2.

[3] = target: T3, equine IL17A-polyHis (equine, biotinylated in the biosensor assay); assay: BLI (Octet); biotinylated equine IL17A-polyHis on streptavidin sensors, antibody 20 µg/mL; BLI (Octet), biotinylated equine IL17A-polyHis on streptavidin sensor, antibody 20 µg/mL
T3 construct: not shown: poly-His tag on the C-terminal
T3 chain: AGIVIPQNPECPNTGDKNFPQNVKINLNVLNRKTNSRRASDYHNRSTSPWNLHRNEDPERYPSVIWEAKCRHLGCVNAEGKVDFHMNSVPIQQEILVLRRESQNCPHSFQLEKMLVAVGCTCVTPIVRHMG
Method: The binding analysis was performed using a Biosensor Octet as follows. Both feline IL17A-polyHis and equine IL17A-polyHis were biotinylated and immobilized to streptavidin biosensors. The association of monoclonal antibody Clones A, C, D, and E (20 μg/mL) to either feline or […] IL17A-polyHis was monitored for 90 seconds. Dissociation was monitored for 600 seconds. A buffer only blank curve was subtracted to correct for any drift. The data were fit to a 1:1 binding model using ForteBio™ data analysis software to determine the kₒₙ, koff, and the Kd. The buffer for dilutions and all binding steps was: 20 mM phosphate, 150 mM NaCl, pH 7.2. […] Weak binding signals of Clone A to feline IL17A and Clone C to feline IL17A were observed.

[4] = target: T4, canine IL17A (as used at 1 nM in the H1080 cell assay) (canine); assay: cell-based or functional assay
T4 chain: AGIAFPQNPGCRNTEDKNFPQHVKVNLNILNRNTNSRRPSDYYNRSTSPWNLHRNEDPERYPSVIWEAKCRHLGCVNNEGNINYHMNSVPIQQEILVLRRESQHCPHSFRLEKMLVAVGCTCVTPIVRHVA

[5] = target: T1, canine IL17A-huFc; assay: BLI (Octet); canine IL17A-huFc captured on anti-human Fc sensors, antibody at 10 µg/mL
Method: Briefly, antibody concentrations were measured by protein A assay using Biosensor Octet (Forte Bio). Canine IL17A-huFc was captured to anti-human Fc bound biosensors. The association of anti-IL17A antibody from clones A, C, D, and E to the canine IL17A-huFc was monitored for 90 seconds. Dissociation was monitored for 600 seconds. A buffer only blank curve was subtracted to correct for any drift. The data were fit to a 1:1 binding model using ForteBio™ data analysis software to determine the kon, koff, and the Kd. The buffer for dilutions and all binding steps was: 20 mM phosphate, 150 mM NaCl, pH 7.2.

[6] = target: T5, canine IL17A-hFc-polyHis Mutant 1 (R71L, L73W, I82T) (canine); assay: Western blot of 3-fold concentrated 293 supernatants, 25 µL per lane, SDS-PAGE with or without DTT, PVDF, probed with Clone C
T5 construct: Tested as 3-fold concentrated supernatant of transfected 293 cells; not shown: human Fc; poly-His tag
T5 chain: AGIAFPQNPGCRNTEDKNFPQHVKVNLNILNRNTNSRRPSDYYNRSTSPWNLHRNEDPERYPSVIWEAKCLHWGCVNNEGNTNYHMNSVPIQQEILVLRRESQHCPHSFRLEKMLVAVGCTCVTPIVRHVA
Method: (§1) Plasmid constructs containing nucleotide sequences encoding each of the canine IL17A-hFC-polyHis mutants were transiently transfected into 293 cells and the supernatants concentrated 3-fold. Each mutant was separated by SDS-PAGE (25 μL per lane) in the presence or absence of DTT and the proteins transferred to a PVDF membrane. The blot was probed using either Clone C antibody or anti-human IgG Fc (control).

[7] = target: T6, canine IL17A-hFc-polyHis Mutant 5 (C-terminal deletion of amino acids 126-131); assay: as above
T6 IL17A-hFc-polyHis fusion chain: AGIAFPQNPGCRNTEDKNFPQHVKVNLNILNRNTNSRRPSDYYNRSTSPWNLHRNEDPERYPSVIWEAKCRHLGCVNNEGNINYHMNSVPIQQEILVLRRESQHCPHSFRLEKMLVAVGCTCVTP
Method: as §1

[8] = target: T7, canine IL17A-hFc-polyHis Mutant 3 (Q103R); assay: as above
T7 IL17A-hFc-polyHis fusion chain: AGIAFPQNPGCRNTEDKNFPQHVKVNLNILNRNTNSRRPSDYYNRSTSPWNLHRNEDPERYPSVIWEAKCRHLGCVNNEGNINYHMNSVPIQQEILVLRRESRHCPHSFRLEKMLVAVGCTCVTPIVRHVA
Method: as §1

B1: mouse monoclonal antibody Clone C (antibody, mouse IgG1, V domains shown)
VH: EVQLVESGGGLVQPGGSLKLSCAASGFTFSSYGMSWVRQTPDKRLELVAIINSNGGSTYYPDSVKGRFTISRDNDKNSLYLQMSSLKSEDTAMYYCVRCHYDYERVFDYWGQGTTLTVSS
VL: DIQMTQSSSYLSVSLGGRVTITCKANDHINNWLAWYQQKPGNAPRLLISGSTSLETGVPSRFSGSGSGKDYTLSITSLQTEDVATYYCQQYWSTPFTFGSGTKLEIK
notes: Hybridoma antibody; also called hybridoma Clone C
EC50 [1]: 0.2 ng/mL | Kd [2]: 7.9 nM | Kd [3]: 0.13 nM | EC50 (ng/mL), H1080 Cell Functional Assay (IL6 secretion) [4]: 7 ng/mL | Kd [5]: < 10 nM | binding result [6]: binds | binding result [7]: binds | binding result [8]: binds
